The experiment deals with Human factor D (human, UniProt P00746 26-253). The experiment in a line: cell-based or functional assay.
Chain of Human factor D (P00746 26-253 limits assumed): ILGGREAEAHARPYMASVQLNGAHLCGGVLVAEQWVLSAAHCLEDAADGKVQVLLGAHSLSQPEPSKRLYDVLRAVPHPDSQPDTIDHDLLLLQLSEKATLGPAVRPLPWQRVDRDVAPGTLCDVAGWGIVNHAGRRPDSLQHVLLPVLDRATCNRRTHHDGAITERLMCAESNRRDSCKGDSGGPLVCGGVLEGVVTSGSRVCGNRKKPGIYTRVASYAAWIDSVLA

B1: Recombinant polypeptide from Example 6 (Placobdella papillifera alternative complement pathway inhibitor, mature polypeptide of SEQ ID NO: 16) (other)
chain: VEFQDCKKSSDCETLELRCNKNTSKCECRNQVCPRACPDGKYKLDEYGCKRCLCQGCNEAQCRKLCWYGFTTDENGCESYCKCNTKETACKNVLCSDSYQCDPESGNCVAVIPGKEHDYYSYNDDDDEDK
modifications: No modification is reported for the recombinant product. paragraph 50 mentions only in general a possible N-glycosylation at Asn22 and sulphation or phosphation of Tyr119, Tyr120 and Tyr122. Disulphide bonds between cysteines are likely but not mapped.
As to B1, the “IC50 of inhibition of CVF-induced C3a generation in human serum (C3a ELISA)” value was 0.138 µg/mL.

For the origin of these results see patent US20040038869A1 (published 2004).
